The values below come from US20120316071A1 (published 2012).

The target in assay [1] is T1, Recombinant Human DLL4 (delta-like protein 4) (human, UniProt Q9NR61 27-524).
T1 construct: Bought recombinant protein (R&D Systems Cat#1506-D4/CF); also called rHuman DLL4
In words: ELISA on plate-coated DLL4, 100 nM Fab.

In assay [2] the target is T1, Recombinant Human DLL4 (delta-like …). In words: ECL 96-well plate assay on immobilised DLL4, 10 nM Fab.
The target in assay [3] is T2, Recombinant Human DLL4 (R&D Systems Cat#1506-D4/CF) (human, UniProt Q9NR61 27-524).
T2 construct: Bought recombinant protein; also called delta-like protein 4; rHuman DLL4
As to the kind of experiment: ECL multispot (MSD) binding assay, DLL4 signal over blank spot; Fab concentration not given.

For assay [4], the target named is T2, Recombinant Human DLL4 (R&D Systems …). As to the kind of experiment: ECL multispot (MSD) binding assay, DLL4 spotted on plate, purified Fab in solution; Fab concentration not given.

B1: Fab VH1-46_IGHD6-6*01_IGHJ1*01 S102A/S103P/S104F/H111F G56H & L6_IGKJ1*01 (Fab, V domains shown)
VH: QVQLVQSGAEVKKPGASVKVSCKASGYTFTSYYMHWVRQAPGQGLEWMGIINPSGHSTSYAQKFQGRVTMTRDTSTSTVYMELSSLRSEDTAVYYCAREEYAPFSAEYFQFWGQGTLVTVSS
VL: not shown
notes: Fab from E. coli; CH1 (with His and Flag tags) and kappa CL come from the expression plasmids; also called APFF G56H
On to B1, for which the “ELISA signal” value in assay [1] stood at 0.65. The “ECL signal” value in assay [2] stood at 68800.

B2: Fab VH1-46_IGHD6-6*01_IGHJ1*01 S102A/S103P/S104F/H111F N52P & L6_IGKJ1*01 (Fab, V domains shown)
VH: QVQLVQSGAEVKKPGASVKVSCKASGYTFTSYYMHWVRQAPGQGLEWMGIIPPSGGSTSYAQKFQGRVTMTRDTSTSTVYMELSSLRSEDTAVYYCAREEYAPFSAEYFQFWGQGTLVTVSS
VL: not shown
notes: Fab from E. coli; CH1 (with His and Flag tags) and kappa CL come from the expression plasmids; also called APFF N52P
As for B2, in assay [1], the “ELISA signal” value came to 0.18. Moreover, the “ECL signal” value in assay [2] is 44800.

B3: Fab VH1-46_IGHD6-6*01_IGHJ1*01 S102A/S103P/S104F/H111F (APFF) & L6_IGKJ1*01 S28E (Fab, V domains shown)
VH: QVQLVQSGAEVKKPGASVKVSCKASGYTFTSYYMHWVRQAPGQGLEWMGIINPSGGSTSYAQKFQGRVTMTRDTSTSTVYMELSSLRSEDTAVYYCAREEYAPFSAEYFQFWGQGTLVTVSS
VL: EIVLTQSPATLSLSPGERATLSCRASQEVSSYLAWYQQKPGQAPRLLIYDASNRATGIPARFSGSGSGTDFTLTISSLEPEDFAVYYCQQRSNWPPWTFGQGTKVEIKR
notes: Fab expressed in E. coli: VH joined to CH1 (Plasmid A, His6 and Flag tags), VL joined to kappa CL (Plasmid C); also called APFF S28E
For the molecule B3, the Signal/Blank in assay [3] amounted to 439. Moreover, in assay [4], the “ECL signal” value was found to be 184000.

B4: Fab VH1-46_IGHD6-6*01_IGHJ1*01 S102A/S103P/S104F/H111F N52Q & L6_IGKJ1*01 (Fab, V domains shown)
VH: QVQLVQSGAEVKKPGASVKVSCKASGYTFTSYYMHWVRQAPGQGLEWMGIIQPSGGSTSYAQKFQGRVTMTRDTSTSTVYMELSSLRSEDTAVYYCAREEYAPFSAEYFQFWGQGTLVTVSS
VL: not shown
notes: Fab from E. coli; CH1 (with His and Flag tags) and kappa CL come from the expression plasmids; also called APFF N52Q
In the case of B4, the “ELISA signal” value in assay [1] was 0.1. The “ECL signal” value in assay [2] is 60600.

B5: Fab VH1-46_IGHD6-6*01_IGHJ1*01 S102A/S103P/S104F/H111F G56K & L6_IGKJ1*01 (Fab, V domains shown)
VH: QVQLVQSGAEVKKPGASVKVSCKASGYTFTSYYMHWVRQAPGQGLEWMGIINPSGKSTSYAQKFQGRVTMTRDTSTSTVYMELSSLRSEDTAVYYCAREEYAPFSAEYFQFWGQGTLVTVSS
VL: not shown
notes: Fab from E. coli; CH1 (with His and Flag tags) and kappa CL come from the expression plasmids; also called APFF G56K
In the case of B5, the “ELISA signal” value in assay [1] stood at 0.19. Further, in assay [2], the “ECL signal” value is 66200.

B6: Fab VH1-46_IGHD6-6*01_IGHJ1*01 S102A/S103P/S104F/H111F N52Y & L6_IGKJ1*01 (Fab, V domains shown)
VH: QVQLVQSGAEVKKPGASVKVSCKASGYTFTSYYMHWVRQAPGQGLEWMGIIYPSGGSTSYAQKFQGRVTMTRDTSTSTVYMELSSLRSEDTAVYYCAREEYAPFSAEYFQFWGQGTLVTVSS
VL: not shown
notes: Fab from E. coli; CH1 (with His and Flag tags) and kappa CL come from the expression plasmids; also called APFF N52Y
For B6, the “ELISA signal” value in assay [1] was found to be 0.01. Moreover, the “ECL signal” value in assay [2] amounted to 24500.

B7: Fab VH1-46_IGHD6-6*01_IGHJ1*01 S102A/S103P/S104F/H111F N52R & L6_IGKJ1*01 (Fab, V domains shown)
VH: QVQLVQSGAEVKKPGASVKVSCKASGYTFTSYYMHWVRQAPGQGLEWMGIIRPSGGSTSYAQKFQGRVTMTRDTSTSTVYMELSSLRSEDTAVYYCAREEYAPFSAEYFQFWGQGTLVTVSS
VL: not shown
notes: Fab from E. coli; CH1 (with His and Flag tags) and kappa CL come from the expression plasmids; also called APFF N52R
For the molecule B7, in assay [1], the “ELISA signal” value came to 0.01. The “ECL signal” value in assay [2] stood at 21600.

B8: Fab VH1-46_IGHD6-6*01_IGHJ1*01 S102A/S103P/S104F/H111F N52K & L6_IGKJ1*01 (Fab, V domains shown)
VH: QVQLVQSGAEVKKPGASVKVSCKASGYTFTSYYMHWVRQAPGQGLEWMGIIKPSGGSTSYAQKFQGRVTMTRDTSTSTVYMELSSLRSEDTAVYYCAREEYAPFSAEYFQFWGQGTLVTVSS
VL: not shown
notes: Fab from E. coli; CH1 (with His and Flag tags) and kappa CL come from the expression plasmids; also called APFF N52K
Take B8: in assay [1], the “ELISA signal” value was 0.45. The “ECL signal” value in assay [2] was determined as 67100.

B9: Fab VH1-46_IGHD6-6*01_IGHJ1*01 S102A/S103P/S104F/H111F N52G & L6_IGKJ1*01 (Fab, V domains shown)
VH: QVQLVQSGAEVKKPGASVKVSCKASGYTFTSYYMHWVRQAPGQGLEWMGIIGPSGGSTSYAQKFQGRVTMTRDTSTSTVYMELSSLRSEDTAVYYCAREEYAPFSAEYFQFWGQGTLVTVSS
VL: not shown
notes: Fab from E. coli; CH1 (with His and Flag tags) and kappa CL come from the expression plasmids; also called APFF N52G
Regarding B9, the “ELISA signal” value in assay [1] came to 0.47. In addition, the “ECL signal” value in assay [2] is 55600.

B10: Fab VH1-46_IGHD6-6*01_IGHJ1*01 S102A/S103P/S104F/H111F N52W & L6_IGKJ1*01 (Fab, V domains shown)
VH: QVQLVQSGAEVKKPGASVKVSCKASGYTFTSYYMHWVRQAPGQGLEWMGIIWPSGGSTSYAQKFQGRVTMTRDTSTSTVYMELSSLRSEDTAVYYCAREEYAPFSAEYFQFWGQGTLVTVSS
VL: not shown
notes: Fab from E. coli; CH1 (with His and Flag tags) and kappa CL come from the expression plasmids; also called APFF N52W
In the case of B10, in assay [1], the “ELISA signal” value came to 0.42. In addition, the “ECL signal” value in assay [2] worked out at 87000.

B11: Fab VH1-46_IGHD6-6*01_IGHJ1*01 S102A/S103P/S104F/H111F N52S & L6_IGKJ1*01 (Fab, V domains shown)
VH: QVQLVQSGAEVKKPGASVKVSCKASGYTFTSYYMHWVRQAPGQGLEWMGIISPSGGSTSYAQKFQGRVTMTRDTSTSTVYMELSSLRSEDTAVYYCAREEYAPFSAEYFQFWGQGTLVTVSS
VL: not shown
notes: Fab from E. coli; CH1 (with His and Flag tags) and kappa CL come from the expression plasmids; also called APFF N52S
As to B11, the “ELISA signal” value in assay [1] was found to be 0.28. Further, the “ECL signal” value in assay [2] came to 62200.

B12: Fab VH1-46_IGHD6-6*01_IGHJ1*01 S102A/S103P/S104F/H111F G56T & L6_IGKJ1*01 (Fab, V domains shown)
VH: QVQLVQSGAEVKKPGASVKVSCKASGYTFTSYYMHWVRQAPGQGLEWMGIINPSGTSTSYAQKFQGRVTMTRDTSTSTVYMELSSLRSEDTAVYYCAREEYAPFSAEYFQFWGQGTLVTVSS
VL: not shown
notes: Fab from E. coli; CH1 (with His and Flag tags) and kappa CL come from the expression plasmids; also called APFF G56T
As for B12, the “ELISA signal” value in assay [1] amounted to 0.2. The “ECL signal” value in assay [2] was determined as 60700.
